In patent US20080241098A1 (Pfizer, published 2008):

Target: T1, human MU-1 Ig fusion protein (human, UniProt Q9HBE5 20-235)
T1 construct: also called MUFc; IL-21R; not shown: Ig part of the fusion protein
Experiment: Biacore, MU-1 Ig fusion protein immobilized on chip
Protocol: Both human and murine Ig fusion proteins were constructed and immobilized on Biacore chips in an effort to identify the ligand for MU-1. A variety of cell culture conditioned media as well as a panel of known cytokines were evaluated for binding to MU-1. Some cytokines were also tested in combination with other receptor chains in the family to consider the possibility that MU-1 may require a second receptor chain for ligand binding. The following cytokines were tested and found to be negative for MU-1 binding: mIL-2, hIL-2, hIL-15, mIL-7, TSLP, TSLP+IL-7, TSLP+IL-7R, TSLP+IL-7g, TSLP+IL-2, TSLP+IL-2+IL-2Rbeta, IL2-Rbeta, IL-2Rgamma, IL-7R, IL-2+IL-2Rbeta, IL-2+IL-2Rgamma, IL-15+IL-2Rbeta, IL-15+IL-2Rgamma, IL-7+IL-2Rgamma, IL-2+IL-7R, IL-15+IL-7R, IL-7+IL-7R. Known receptors have been immobilized as well and tested for MUFc binding with negative results. IL-15 will bind to IL-2Rb but not IL-2Rg or MUFc.

T1 sequence (Q9HBE5 20-235): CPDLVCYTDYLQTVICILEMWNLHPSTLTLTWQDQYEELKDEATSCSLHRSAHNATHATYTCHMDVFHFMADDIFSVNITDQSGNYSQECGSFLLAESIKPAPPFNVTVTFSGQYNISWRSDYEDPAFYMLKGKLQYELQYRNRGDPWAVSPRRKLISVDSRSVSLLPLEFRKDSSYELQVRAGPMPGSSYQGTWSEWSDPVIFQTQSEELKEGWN

B1: mIL-2 (ligand, murine, UniProt P04351 21-169, looked up)
chain: APTSSSTSSSTAEAQQQQQQQQQQQQHLEQLLMDLQELLSRMENYRNLKLPRMLTFKFYLPKQATELKDLQCLEDELGPLRHVLDLTQSKSFQLEDAENFISNIRVTVVKLKGSDNTFECQFDDESATVVDFLRRWIAFCQSIISTSPQ
  binding result: no binding

B2: mIL-7 (ligand, murine, UniProt P10168 26-154, looked up)
chain: ECHIKDKEGKAYESVLMISIDELDKMTGTDSNCPNNEPNFFRKHVCDDTKEAAFLNRAARKLKQFLKMNISEEFNVHLLTVSQGTQTLVNCTSKEEKNVKEQKKNDACFLKRLLREIKTCWNKILKGSI
  binding result: no binding
